Assay results taken from article PMC12518824 (Nature Communications, 2025).

What was measured:
[1] = target: T1, Munc13-4 (full-length human, recombinant) (human, UniProt Q70J99 1-1090); test: pull-down
T1 sequence (looked up): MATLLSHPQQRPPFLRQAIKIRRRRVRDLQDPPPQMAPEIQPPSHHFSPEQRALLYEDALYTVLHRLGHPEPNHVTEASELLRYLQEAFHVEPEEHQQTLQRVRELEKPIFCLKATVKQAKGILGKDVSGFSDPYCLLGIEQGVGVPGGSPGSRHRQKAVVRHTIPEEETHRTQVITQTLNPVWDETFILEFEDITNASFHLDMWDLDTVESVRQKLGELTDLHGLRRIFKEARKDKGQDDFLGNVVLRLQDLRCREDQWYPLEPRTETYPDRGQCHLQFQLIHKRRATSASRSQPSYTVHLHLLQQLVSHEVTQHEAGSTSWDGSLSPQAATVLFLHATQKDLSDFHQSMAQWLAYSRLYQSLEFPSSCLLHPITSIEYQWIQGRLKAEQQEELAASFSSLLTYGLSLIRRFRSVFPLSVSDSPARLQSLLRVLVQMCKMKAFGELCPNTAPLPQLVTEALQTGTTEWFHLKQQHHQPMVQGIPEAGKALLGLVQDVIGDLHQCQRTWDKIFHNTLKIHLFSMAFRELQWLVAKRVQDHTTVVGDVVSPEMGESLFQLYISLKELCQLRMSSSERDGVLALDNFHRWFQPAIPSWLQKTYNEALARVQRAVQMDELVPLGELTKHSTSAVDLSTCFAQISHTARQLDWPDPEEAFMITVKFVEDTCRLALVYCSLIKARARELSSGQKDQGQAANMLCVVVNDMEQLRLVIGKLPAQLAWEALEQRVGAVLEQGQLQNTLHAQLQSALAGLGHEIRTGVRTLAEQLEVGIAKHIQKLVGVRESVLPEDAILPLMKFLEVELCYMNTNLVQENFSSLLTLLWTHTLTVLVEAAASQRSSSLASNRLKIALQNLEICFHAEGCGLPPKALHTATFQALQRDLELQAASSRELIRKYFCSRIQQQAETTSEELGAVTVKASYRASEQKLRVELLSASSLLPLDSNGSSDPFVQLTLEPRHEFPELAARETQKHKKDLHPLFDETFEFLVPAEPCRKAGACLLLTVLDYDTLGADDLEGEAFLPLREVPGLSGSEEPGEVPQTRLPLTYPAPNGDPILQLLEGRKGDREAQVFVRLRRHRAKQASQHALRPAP

[2] = target: T2, syntaxin-4 ΔTM (residues 1–275) (human, UniProt Q12846 1-275); test: FRET or BRET
T2 sequence (looked up): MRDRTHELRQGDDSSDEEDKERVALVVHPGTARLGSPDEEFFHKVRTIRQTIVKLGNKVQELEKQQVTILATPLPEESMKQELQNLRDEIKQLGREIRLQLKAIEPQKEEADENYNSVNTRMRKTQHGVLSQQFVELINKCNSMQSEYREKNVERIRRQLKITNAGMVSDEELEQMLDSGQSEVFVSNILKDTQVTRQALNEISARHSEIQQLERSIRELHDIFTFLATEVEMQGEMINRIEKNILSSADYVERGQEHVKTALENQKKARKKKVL

Row | Binder | binding result [1] | binding result [2]
1 | GST-Rab27a (full-length) (natural protein, human, UniProt P51159 1-221, looked up) MSDGDYDYLIKFLALGDSGVGKTSVLYQYTDGKFNSKFITTVGIDFREKRVVYRASGPDGATGRGQRIHLQLWDTAGQERFRSLTTAFFRDAMGFLLLFDLTNEQSFLNVRNWISQLQMHAYCENPDIVLCGNKSDLEDQRVVKEEEAIALAEKYGIPYFETSAANGTNISQAIEMLLDLIMKRMERCVDKSWIPEGVVRSNGHASTDQLSEEKEKGACGC | binds | 
2 | VAMP-7 SNARE motif (residues 123–187, A131C) labeled with BODIPY FL (domain or fragment, human, UniProt P51809 123-187, looked up) LDKVMETQC(BODIPY FL)QVDELKGIMVRNIDLVAQRGERLELLIDKTENLVDSSVTFKTTSRNLARAMCMKNL |  | binds
3 | GST-VAMP-7 SNARE motif (residues 123–187) (domain or fragment, human, UniProt P51809 123-187, looked up) LDKVMETQAQVDELKGIMVRNIDLVAQRGERLELLIDKTENLVDSSVTFKTTSRNLARAMCMKNL | binds | 
